Positions count from the first letter of the chain named. Names may count otherwise. “And” between values parts separate entries of the source, which are not always exact repeats. Identical values can stand only once. Like-named read-outs stand apart in the source and are kept apart here.

Series [1] deals with _(MPPΔ3)Skd3_WB (MPP-cleaved Skd3 without the C-terminal hydrophobic residues of the inhibitory sequence, with E455Q) (human). Description: mass photometry.
The target is the same in series [2]. The series can be described thus: mass photometry. This is another data set of the same source.
Series [3] deals with the molecule itself. The series can be described thus: electron microscopy, 2D class averages.
Series [4] addresses FITC-casein (UniProt P02662). Description: fluorescence polarisation. In general terms: Fluorescence polarisation rises when a labelled molecule tumbles more slowly, as on binding a larger partner.
Series [5] has as its target FITC-casein (UniProt P02662). The series can be described thus: fluorescence polarisation. The source holds these as a separate data set.
Series [6] concerns the molecule itself. The series can be described thus: mass photometry.

Chain of FITC-casein (P02662 16-214): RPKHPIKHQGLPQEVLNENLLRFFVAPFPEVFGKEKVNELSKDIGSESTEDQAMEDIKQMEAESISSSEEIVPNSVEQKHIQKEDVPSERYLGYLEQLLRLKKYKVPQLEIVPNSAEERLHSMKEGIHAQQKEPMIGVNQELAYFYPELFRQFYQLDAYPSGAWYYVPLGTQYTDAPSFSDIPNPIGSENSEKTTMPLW

Broadly, the stoichiometry N is a count of units in the complex or per binding partner. For the molecule “_(MPPΔ3)Skd3_WB (MPP-cleaved Skd3 without the C-terminal hydrophobic residues of the inhibitory sequence, with E455Q) (enzyme)”, the stoichiometry N was determined as 6 in series [1] and 12 in series [2].

B1: _(PARL)Skd3 (PARL-cleaved Skd3, human ClpB), wild type (enzyme, UniProt Q9H078 127-707, looked up)
chain: YSKSPSNKDAALLEAARANNMQEVSRLLSEGADVNAKHRLGWTALMVAAINRNNSVVQVLLAAGADPNLGDDFSSVYKTAKEQGIHSLEDGGQDGASRHITNQWTSALEFRRWLGLPAGVLITREDDFNNRLNNRASFKGCTALHYAVLADDYRTVKELLDGGANPLQRNEMGHTPLDYAREGEVMKLLRTSEAKYQEKQRKREAEERRRFPLEQRLKEHIIGQESAIATVGAAIRRKENGWYDEEHPLVFLFLGSSGIGKTELAKQTAKYMHKDAKKGFIRLDMSEFQERHEVAKFIGSPPGYVGHEEGGQLTKKLKQCPNAVVLFDEVDKAHPDVLTIMLQLFDEGRLTDGKGKTIDCKDAIFIMTSNVASDEIAQHALQLRQEALEMSRNRIAENLGDVQISDKITISKNFKENVIRPILKAHFRRDEFLGRINEIVYFLPFCHSELIQLVNKELNFWAKRAKQRHNITLLWDREVADVLVDGYNVHYGARSIKHEVERRVVNQLAAAYEQDLLPGGCTLRITVEDSDKQLLKSPELPSPQAEKRLPKLRLEIIDKDSKTRRLDIRAPLHPEKVCNTI
In general, Kd refers to the constant that tells how readily two partners part at equilibrium. A low value points to higher affinity. As to B1, in series [3], the “stoichiometry N” value was 6 and 7. In addition, the Kd in series [4] was determined as 3.4 µM; in series [5] it was 0.86 µM.

B2: _(PARL)Skd3_WB (PARL-cleaved Skd3 with the Walker B mutation E455Q) (enzyme, human, UniProt Q9H078 127-707, looked up)
chain: B1 chain with E329Q
Take B2: in series [4], the Kd came to 3.6 µM. Moreover, the “stoichiometry N” value in series [6] came to 6.

B3: Skd3_L1,L2GH_WB (_(PARL)Skd3 with the L1GH and L2GH turn loop mutations and E455Q) (enzyme)
chain: B1 chain with N19G, N20H, R52G, N53H, E329Q
In the case of B3, in series [6], the “ratio of dodecamer relative to hexamer” value was 0.41 ± 0.12; the “stoichiometry N” value was 6 and 12.

B4: _(PARL)Skd3_ARD (isolated ankyrin repeat domain of Skd3) (domain or fragment)
chain: VTTGSLGEPQWLRVATGGRPGTSPALFSGRGAATGGRQGGRFDTKCLAAATWGRLPGPEETLPGQDSWNGVPSRAGLGMCALAAALVVHCYSKSPSNKDAALLEAARANNMQEVSRLLSEGADVNAKHRLGWTALMVAAINRNNSVVQVLLAAGADPNLGDDFSSVYKTAKEQGIHSLEDGGQDGASRHITNQWTSALEFRRWLGLPAGVLITREDDFNNRLNNRASFKGCTALHYAVLADDYRTVKELLDGGANPLQRNEMGHTPLDYAREGEVMKLLRTSEAKYQEKQR
In turn, B4 yielded a Kd in series [4] of 3.7 µM.

Source of the values: article PMC10171807 (Science Advances, 2023).
